Laboratory results as given in paper PMC2488374, “Study of a Synthetic Human Olfactory Receptor 17-4: Expression and Purification from an Inducible Mammalian Cell Line” (PLoS ONE, 2008).

Molecular target: the molecule itself
Assay: SEC; immunoaffinity-purified hOR17-4 at 0.75 mg/ml on HiLoad 16/60 Superdex 200 in PBS + 0.2% w/v fos-choline-14, 1 ml/min; peak fractions analysed by SDS-PAGE and SYPRO-Ruby staining

B1: human olfactory receptor 17-4 with C-terminal GlyGly linker and rho1D4 tag (hOR17-4-GlyGly-rho1D4) (receptor, UniProt P34982 1-312, looked up)
chain: MDGGNQSEGSEFLLLGMSESPEQQRILFWMFLSMYLVTVVGNVLIILAISSDSRLHTPVYFFLANLSFTDLFFVTNTIPKMLVNLQSHNKAISYAGCLTQLYFLVSLVALDNLILAVMAYDRYVAICCPLHYTTAMSPKLCILLLSLCWVLSVLYGLIHTLLMTRVTFCGSRKIHYIFCEMYVLLRMACSNIQINHTVLIATGCFIFLIPFGFVIISYVLIIRAILRIPSVSKKYKAFSTCASHLGAVSLFYGTLCMVYLKPLHTYSVKDSVATVMYAVVTPMMNPFIYSLRNKDMHGALGRLLDKHFKRLT
notes: human olfactory receptor 17-4 (OR1D2), wild type, 312 amino acids; with GlyGly linker and rho1D4 tag the construct has 323 amino acids; Synthetic, human codon-optimised gene in pcDNA4/To; also called OR1D2; hOR17-4-rho
For B1, the “stoichiometry N” value was 2.
